{
  "source": "paper PMC3449402",
  "biological_target": "MAb<EGFR> (human)",
  "test": "SPR",
  "data": [
    {"substance": "soluble construct of the FcγRIIIa ectodomain (from UniProt P08637 17-208) (receptor)", "values": [
      {"measurement": "Kd", "result": 120, "unit": "nM"}
    ]}
  ]
}
